{"source": "patent US20140141454A1", "target": "human EpCAM immobilized with paraformaldehyde (on PFA-treated MCF-7 or PC-3 cells) (human) (UniProt P16422)", "sequence (P16422 24-314 limits assumed)": "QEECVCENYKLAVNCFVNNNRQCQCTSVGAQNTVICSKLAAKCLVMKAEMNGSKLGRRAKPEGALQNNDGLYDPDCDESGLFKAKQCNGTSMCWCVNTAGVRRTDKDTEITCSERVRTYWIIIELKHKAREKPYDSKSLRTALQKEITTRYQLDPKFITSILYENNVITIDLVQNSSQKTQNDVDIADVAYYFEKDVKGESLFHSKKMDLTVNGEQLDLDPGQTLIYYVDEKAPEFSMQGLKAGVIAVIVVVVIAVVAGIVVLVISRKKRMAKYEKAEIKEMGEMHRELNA", "assay": "liquid-phase ELISA on PC-3 cells in suspension, PFA-treated against untreated"}
{"substance": "HEA-125 anti-EpCAM monoclonal antibody", "values": [{"measurement": "fold change of ELISA signal after 4% PFA treatment", "result": "< 1.5", "unit": "fold"}]}
